The numbers were not newly measured in publication PMC3039521, which cites them from elsewhere.

As usually defined, the Kd is a measure of binding affinity in units of concentration.

This series deals with Abl P-x-L-P-x-K motif (UniProt P00519).

As to Crk SH3N (from UniProt P46108), the Kd is 1000 nM.
